In US20180236031A1:

Biological target: high-affinity TrkA receptor on the TF-1 cell surface (UniProt P04629)
Experiment: cell-based or functional assay

Sequence of UniProt P04629 (P04629 33-796 limits assumed): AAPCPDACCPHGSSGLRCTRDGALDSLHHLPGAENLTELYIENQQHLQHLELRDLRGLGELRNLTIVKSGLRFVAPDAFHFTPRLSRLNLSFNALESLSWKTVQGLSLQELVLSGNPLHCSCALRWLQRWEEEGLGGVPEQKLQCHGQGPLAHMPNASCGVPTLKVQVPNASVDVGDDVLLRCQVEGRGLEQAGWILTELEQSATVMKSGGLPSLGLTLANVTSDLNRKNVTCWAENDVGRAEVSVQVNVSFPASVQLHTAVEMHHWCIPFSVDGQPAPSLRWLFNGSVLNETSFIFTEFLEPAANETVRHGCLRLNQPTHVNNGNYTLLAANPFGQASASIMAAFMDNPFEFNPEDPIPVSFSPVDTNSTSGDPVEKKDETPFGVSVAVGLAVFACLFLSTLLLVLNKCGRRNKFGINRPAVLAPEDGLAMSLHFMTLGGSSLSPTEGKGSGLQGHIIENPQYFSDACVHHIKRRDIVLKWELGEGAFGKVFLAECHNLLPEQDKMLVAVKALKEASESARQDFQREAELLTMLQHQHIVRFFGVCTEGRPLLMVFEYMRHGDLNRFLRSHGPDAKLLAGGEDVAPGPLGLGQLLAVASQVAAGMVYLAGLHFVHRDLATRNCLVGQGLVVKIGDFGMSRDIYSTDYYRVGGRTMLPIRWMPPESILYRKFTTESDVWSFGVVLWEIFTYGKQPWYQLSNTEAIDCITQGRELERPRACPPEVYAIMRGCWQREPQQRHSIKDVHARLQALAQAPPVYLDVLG

- specific activity in the TF-1 cell proliferation assay (MTT): 1.2e+06 AU mg^-1
Substance: rhNGF-CTP (long-lasting recombinant human nerve growth factor; mature NGF-CTP) (ligand)
